According to US20110280881A1, “NOVEL ANTI-HSP90 MONOCLONAL ANTIBODY” (RIKEN, priority 2010, published 2011):

B1: 6H8: anti-HSP90 monoclonal antibody produced by hybridoma FERM BP-11222; epitope … (antibody)
VH: QVQLQQSGPELVKPGASVRISCKASGYTFTSYYIHWVKQRPGQGLEWIGWIYPGNVNTKYNEKFKGKATLTADKSSSTAYMQLSSLTSEDSAVYFCARYGNYPFAYWGQGTLVTVSAAKTTAPSVYPLAPVCGDTTGSSVTLGCLVKGYF
VL: DVVMTQTPLSLPVSLGDQASISCRSSQSLVHSNGNTYLHWYLQKPGQSPKLLIYKVSNRFSGVPDRFSGSGSGTDFTLKISRVEAEDLGVYFCSQSTHVPPTFGGGTKLEIKRADAAPTVSIFPPSSEQLTSGGASVVCFLNNFYPKDINVKWKIDGS
B2: 6H8-OVA: high molecular weight conjugate of the 6H8 antibody and maleimide-activated OVA (conjugate)
VH: B1 VH
VL: B1 VL
chain: GSIGAASMEFCFDVFKELKVHHANENIFYCPIAIMSALAMVYLGAKDSTRTQINKVVRFDKLPGFGDSIEAQCGTSVNVHSSLRDILNQITKPNDVYSFSLASRLYAEERYPILPEYLQCVKELYRGGLEPINFQTAADQARELINSWVESQTNGIIRNVLQPSSVDSQTAMVLVNAIVFKGLWEKAFKDEDTQAMPFRVTEQESKPVQMMYQIGLFRVASMASEKMKILELPFASGTMSMLVLLPDEVSGLEQLESIINFEKLTEWTSSNVMEERKIKVYLPRMKMEEKYNLTSVLMAMGITDVFSSSANLSGISSAESLKISQAVHAAHAEINEAGREVVGSAEAGVDAASVSEEFRADHPFLFCIKHIATNAVLFFGRCVSP

How the values were obtained:
mouse HSP90α = assay: Epitope mapping by ELISA with biotinylated overlapping peptides; assay type: binding; conditions: 12-amino-acid overlapping peptides, antibody 1 μg/ml, OD405
Procedure: Epitope mapping was performed using biotinylated overlapping peptides. The biotinylated overlapping peptides were prepared as described in a publicly known document (J. Immunological Methods 2002; 267:27-35). The epitope mapping was performed using a library of 12-amino-acid-long synthetic peptides each having an overlap of four amino acids.
After an avidin-coated plate was blocked with BSA, the above-described biotinylated overlapping peptides (1.25-3.75 mg/ml) were added. The plate was incubated at room temperature for 2 hours, after which it was washed with PBS/Tween 20 to remove the unreacted biotinylated overlapping peptides. Each anti-HSP90 monoclonal antibody (1 μg/ml) was added, and the plate was incubated at room temperature for 2 hours. The plate was washed with PBS/Tween 20 to remove the unreacted antibody, after which anti-mouse IgG-ALP (BD Pharmingen, used at a 2000-fold dilution) was added, and the plate was incubated at room temperature for 1 hour. The plate was washed with PBS/Tween 20 to remove the unreacted anti-mouse IgG-ALP, after which a pNPP solution (KPL, 1 mg/ml) was added, and the plate was incubated at room temperature for 3 hours to cause color development. After the color development, the plate was subjected to measurement of OD405 nm. […]

[1] = tested on: cell surface HSP90 on DC2.4 cells; assay: Internalization of cell surface HSP90 by the 6H8 antibody; assay type: cell-based
Procedure: The behavior of the 6H8-HSP90 complex after being recognized by the 6H8 antibody was examined as described below. First, DC2.4 cells were incubated in the presence of biotinylated 6H8 (1 μg/ml) on ice for 30 minutes and washed. Next, the cells were incubated at 37° C. with 5% CO2 for 0, 10, 20, 30, or 60 minutes. After cooling on ice, the cells were stained with PE-Cy5-streptavidin and analyzed by FACS. The results are shown in the left panel of FIG. 4B. Shown in the right panel are bar graphs for the MFI of each group.
Furthermore, immunostaining was performed to compare the behavior of HSP90 with the behaviors of the MHC class 1 molecule H-2K^b and the MHC class II molecule I-A^b. First, DC2.4 cells were incubated in the presence of the biotinylated 6H8 antibody and the FITC-labeled anti-H-2K^b antibody or anti-I-A^b antibody (Pharmingen, the antibody was used at a 100-fold dilution) in the same manner as the above. The cells were stained with PE-Cy5-streptavidin, returned to room temperature and incubated for 20 minutes, and then examined using a confocal microscope. […] It was confirmed that cell surface HSP90 was internalized by the 6H8 antibody.

[2] = tested on: cell surface HSP90α and β; assay: Immunoprecipitation of cell surface HSP90 from DC2.4 living cells; assay type: binding; conditions: DC2.4 living cells incubated with antibody on ice
Procedure: Mammalian HSP90 occurs in two isoforms: HSP90α and β. The following experiment was performed to determine whether not only HSP90α but also HSP90β is recognized by the antibody of the present invention. First, DC2.4 living cells were incubated along with an antibody on ice using 6H8, 2A6 or normal mouse IgG as a negative control. After being thoroughly washed to remove the unreacted antibody, the cells were lysed; the lysate was centrifuged at 10,000×g, and the resulting supernatant was incubated along with Protein G-Sepharose. The bound material was subjected to SDS-PAGE, after which blotting was performed using an anti-HSP90α antibody (SPS-771, Assay designs), an anti-HSP90β antibody (PB-118-P1, Neomarkers), or an antibody that recognizes both HSP90α and β (6B1C4, another antibody obtained in Example 1).

OT-I CD8+ T cells = assay: In vivo proliferation of transplanted CFSE-labeled OT-I CD8+ T cells; set-up: species or system mouse; conditions: for proliferation of transplanted OT-I CD8+ T cells: 3 μg fractions 15 to 19 (mixture), three days
Procedure: First, CFSE-labeled OT-I CD8^+ T cells were generated as follows: A 10 mM CFSE stock solution in DMSO was diluted with PBS to prepare a 10 μM CFSE solution. A pellet of splenocytes prepared in a 15-ml tube was thoroughly loosened by tapping, after which 2 ml of the 10 μM CFSE solution was added thereto, and the mixture was gently vortexed. After being allowed to stand at room temperature for 5 minutes, the cells were washed twice with PBS (5 ml).
The CFSE-labeled OT-I CD8^+ T cells were transplanted to recipient mice from the tail vein. The recipient mice used were a wild-type B6 mouse (WT B6) and a TAP1-deficient mouse [TAP1 KO (purchased from Jackson Laboratory, U.S.A.)]. At the same time, 3 μg of the fractions 15 to 19 (mixture), 3 μg of the fraction 33, or a mixture of the fraction 33 (3 μg) and the free 6H8 antibody (3 μg) was injected. Three days later, splenocytes of each recipient mouse were collected and examined for proliferation of the transplanted cells.
A mixture of the fractions 15 to 19 containing the 6H8-OVA conjugate was injected into recipient mice at a series of doses, and the proliferation of OT-I CD8^+ T cells was examined in the same manner as the above. As a result, higher doses of the mixture more potently promoted the proliferation of CD8^+ T cells, although this effect was observed even at 0.1 μg (upper panel of FIG. 8C).

[3] = tested on: cytotoxic T cells specific for OVA257-264 epitope; assay: Induction of OVA257-264-specific cytotoxic T cells by immunization (tetramer staining, 51Cr release); assay type: in vivo; conditions: 3 μg per mouse
Procedure: The mice were immunized twice at a 1-week interval. One week after second immunization, splenocytes were cultured in the presence of the OVA257-264 peptide for 5 days. The resulting cytotoxic T cells were monitored by tetramer staining [T cells were stained using T-Select H-2K^b OVA Tetramer-[…]-PE (MBL, TS5001-1, amount used=1 test/tube) at room temperature for 30 minutes], and standard ^51Cr release assay [2×10^6 each of mouse tumor cells E.G7, supplied by Dr. Michael Bevan at the University of Washington, U.S.A. (see Cell vol. 54:777-785, 1988), and EL4 (purchased from ATCC) were labeled with 50 microcuries of sodium ^51Cr, and used as the target cells; the cytotoxic T cells were added to 5×10^3 target cells as indicated in FIG. 8E; after cultivation for 4 hours, free ^51Cr in the supernatant was measured to calculate the cytotoxic activity; the EL4 cells with or without pulsing with the peptide OVA257-264 were prepared].

Row | Molecule | epitope region mapped (amino acid numbers) (mouse HSP90α) | internalization of cell surface HSP90 (confocal microscope) ([1]; DC2.4, 20 minutes at room temperature) | time for the 6H8-HSP90 complex to disappear from the cell surface (enter into cells) ([1]; DC2.4, biotinylated 6H8 1 μg/ml, 37° C.) | recognition of cell surface HSP90α and β on living cells (immunoprecipitation) [2] | proliferation of transplanted OT-I CD8+ T cells (OT-I CD8+ T cells; TAP1-deficient mouse) | dose at which promotion of proliferation of OT-I CD8+ T cells was observed (OT-I CD8+ T cells; series of doses injected into recipient mice) | proliferation of transplanted OT-I CD8+ T cells (OT-I CD8+ T cells; wild-type B6 mouse) | tetramer-positive cells after immunization ([3]; twice at 1-week interval, splenocytes cultured with OVA257-264 5 days) | cytotoxicity in 51Cr release assay ([3]; twice, target cells E.G7, EL4 with or without OVA257-264)
1 | B1 | HSP90α713-724 | internalized | about 10 minutes | recognized | – | – | – | – | –
2 | B2 | – | – | – | – | did not induce the proliferation of CD8^+ T cells at all | ≤ 0.1 µg | proliferation of CD8^+ T cells was confirmed | produced tetramer-positive cells | cytotoxicity to OVA257-264 epitope was also observed
